Laboratory results reported in the supplement of paper PMC11246515.
± gives the standard deviation of the averaged measurements.

Assay: total protein half-life in vivo (active degradation + dilution); higher = more stable protein
[1] = E. coli NCM3722 delta-clpP delta-lon delta-hslV, growth: N-lim chemostat, doubling time 6 h
[2] = wild type E. coli NCM3722, growth: C-lim chemostat, doubling time 6 h
[3] = wild type E. coli NCM3722, growth: C-lim chemostat, doubling time 12 h
[4] = E. coli NCM3722 delta-clpP, growth: N-lim chemostat, doubling time 6 h
[5] = E. coli NCM3722 delta-hslV, growth: N-lim chemostat, doubling time 6 h
[6] = E. coli NCM3722 delta-lon, growth: N-lim chemostat, doubling time 6 h
[7] = E. coli NCM3722 delta-smpB, growth: N-lim chemostat, doubling time 6 h
[8] = wild type E. coli NCM3722, growth: N-lim chemostat, doubling time 6 h
[9] = wild type E. coli NCM3722, growth: N-lim chemostat, doubling time 12 h
[10] = wild type E. coli NCM3722, growth: P-lim chemostat, doubling time 6 h
[11] = wild type E. coli NCM3722, growth: P-lim chemostat, doubling time 12 h

Row | Sequence | total protein half-life in vivo [1] [h] | total protein half-life in vivo [2] [h] | total protein half-life in vivo [3] [h] | total protein half-life in vivo [4] [h] | total protein half-life in vivo [5] [h] | total protein half-life in vivo [6] [h] | total protein half-life in vivo [7] [h] | total protein half-life in vivo [8] [h] | total protein half-life in vivo [9] [h] | total protein half-life in vivo [10] [h] | total protein half-life in vivo [11] [h] | total protein half-life in vivo (wild type E. coli NCM3722, growth: C-lim chemostat, doubling time 3 h) [h]
1 | MLVSCAMRLHSGVFPDYAEKLPQEEKMEKEDSFPQRVWQIVAAIPEGYVTTYGDVAKLAGSPRAARQVGGVLKRLPEGSTLPWHRVVNRHGTISLTGPDLQRQRQALLAEGVMVSGSGQIDLQRYRWNY [P0AFP2] | 5.49 ± 0.093 | 4.04 | 3.96 |  |  |  |  |  |  |  |  | 
2 | MLVWLAEHLVKYYSGFNVFSYLTFRAIVSLLTALFISLWMGPRMIAHLQKLSFGQVVRNDGPESHFSKRGTPTMGGIMILTAIVISVLLWAYPSNPYVWCVLVVLVGYGVIGFVDDYRKVVRKDTKGLIARWKYFWMSVIALGVAFALYLAGKDTPATQLVVPFFKDVMPQLGLFYILLAYFVIVGTGNAVNLTDGLDGLAIMPTVFVAGGFALVAWATGNMNFASYLHIPYLRHAGELVIVCTAIVGAGLGFLWFNTYPAQVFMGDVGSLALGGALGIIAVLLRQEFLLVIMGGVFVVETLSVILQVGSFKLRGQRIFRMAPIHHHYELKGWPEPRVIVRFWIISLMLVLIGLATLKVR [P0A6W3] | 6.14 |  | 12.3 ± 0.13 | 5.83 | 5.23 | 5.13 ± 0.073 | 7.03 | 6.35 ± 0.4 | 13.1 | 6.06 | 11.1 ± 0.92 | 
3 | MLWGFVFVSFISKELALGQSEYISWVKCTSWLSNFVNLRGLRQPDGRPLYEYHATNDEYTQLTQLLRAVGQSQSNICNRDFAACFVLFCSEWYRRDYERQCGWTWDPIYKKIGISFTATELGTIVPKGMEDYWLRPIRFYESERRNFLGTLFSEGGLPFRLLKESDSRFLAVFSRILGQYEQAKQSGFSALSLARAVIEKSALPTVFSEDTSVELISHMADNLNSLVLTHNLINHKEPVQQLEKVHPTWRSEFPIPLDDETGTHFLNGLLCAASVEAKPRLQKNKSTRCQFYWSEKHPDELRVIVSLPDEVSFPVTSEPSTTRFELAICEDGEEVSGLGPAYASLENRQATVRLRKSEVRFGRQNPSAGLSLVARAGGMIVGSIKLDDSEIAIGEVPLTFIVDADQWLLQGQASCSVRSSDVLIVLPRDNSNVAGFDGQSRAVNVLGLKALPVKGCQDVTVTANETYRIRTGREQISIGRFALNGKRASWVCHPDETFIGVPKVISTLPDIQSIDVTRYTC |  |  |  |  |  |  |  | 5.44 |  |  |  | 
4 | MLYDKSLERDNCGFGLIAHIEGEPSHKVVRTAIHALARMQHRGAILADGKTGDGCGLLLQKPDRFFRIVAQERGWRLAKNYAVGMLFLNKDPELAAAARRIVEEELQRETLSIVGWRDVPTNEGVLGEIALSSLPRIEQIFVNAPAGWRPRDMERRLFIARRRIEKRLEADKDFYVCSLSNLVNIYKGLCMPTDLPRFYLDLADLRLESAICLFHQRFSTNTVPRWPLAQPFRYLAHNGEINTITGNRQWARARTYKFQTPLIPDLHDAAPFVNETGSDSSSMDNMLELLLAGGMDIIRAMRLLVPPAWQNNPDMDPELRAFFDFNSMHMEPWDGPAGIVMSDGRFAACNLDRNGLRPARYVITKDKLITCASEVGIWDYQPDEVVEKGRVGPGELMVIDTRSGRILHSAETDDDLKSRHPYKEWMEKNVRRLVPFEDLPDEEVGSRELDDDTLASYQKQFNYSAEELDSVIRVLGENGQEAVGSMGDDTPFAVLSSQPRIIYDYFRQQFAQVTNPPIDPLREAHVMSLATSIGREMNVFCEAEGQAHRLSFKSPILLYSDFKQLTTMKEEHYRADTLDITFDVTKTTLEATVKELCDKAEKMVRSGTVLLVLSDRNIAKDRLPVPAPMAVGAIQTRLVDQSLRCDANIIVETASARDPHHFAVLLGFGATAIYPYLAYETLGRLVDTHAIAKDYRTVMLNYRNGINKGLYKIMSKMGISTIASYRCSKLFEAVGLHDDVVGLCFQGAVSRIGGASFEDFQQDLLNLSKRAWLARKPISQGGLLKYVHGGEYHAYNPDVVRTLQQAVQSGEYSDYQEYAKLVNERPATTLRDLLAITPGENAVNIADVEPASELFKRFDTAAMSIGALSPEAHEALAEAMNSIGGNSNSGEGGEDPARYGTNKVSRIKQVASGRFGVTPAYLVNADVIQIKVAQGAKPGEGGQLPGDKVTPYIAKLRYSVPGVTLISPPPHHDIYSIEDLAQLIFDLKQVNPKAMISVKLVSEPGVGTIATGVAKAYADLITIAGYDGGTGASPLSSVKYAGCPWELGLVETQQALVANGLRHKIRLQVDGGLKTGVDIIKAAILGAESFGFGTGPMVALGCKYLRICHLNNCATGVATQDDKLRKNHYHGLPFKVTNYFEFIARETRELMAQLGVTRLVDLIGRTDLLKELDGFTAKQQKLALSKLLETAEPHPGKALYCTENNPPFDNGLLNAQLLQQAKPFVDERQSKTFWFDIRNTDRSVGASLSGYIAQTHGDQGLAADPIKAYFNGTAGQSFGVWNAGGVELYLTGDANDYVGKGMAGGLIAIRPPVGSAFRSHEASIIGNTCLYGATGGRLYAAGRAGERFGVRNSGAITVVEGIGDNGCEYMTGGIVCILGKTGVNFGAGMTGGFAYVLDESGDFRKRVNPELVEVLSVDALAIHEEHLRGLITEHVQHTGSQRGEEILANWSTFATKFALVKPKSSDVKALLGHRSRSAAELRVQAQ | 6.38 ± 0.89 | 4.89 ± 0.053 | 8.46 ± 0.56 | 6.254 ± 0.044 | 4.18 ± 0.16 | 4.437 ± 0.013 | 4.06 ± 0.1 | 3.92 ± 0.12 | 6.4 ± 0.52 | 5.31 ± 0.17 | 8.43 ± 0.51 | 2.72 ± 0.22
5 | MLYVIYAQDKADSLEKRLSVRPAHLARLQLLHDEGRLLTAGPMPAVDSNDPGAAGFTGSTVIAEFESLEAAQAWADADPYVAAGVYEHVSVKPFKKVF [P0AB55] | 5.05 ± 0.14 | 4.96 ± 0.49 | 9.37 | 4.751 ± 0.018 | 4.51 ± 0.13 | 5.1 ± 0.41 | 5.34 ± 1 |  | 7.02 ± 0.86 | 6 |  | 
6 | MMANIWWSLPLTLIVFFAARKLAARYKFPLLNPLLVAMVVIIPFLMLTGISYDSYFKGSEVLNDLLQPAVVALAYPLYEQLHQIRARWKSIITICFIGSVVAMVTGTSVALLMGASPEIAASILPKSVTTPIAMAVGGSIGGIPAISAVCVIFVGILGAVFGHTLLNAMRIRTKAARGLAMGTASHALGTARCAELDYQEGAFSSLALVLCGIITSLIAPFLFPIILAVMG [P0AD19] |  |  |  |  |  |  |  | 5.99 |  |  |  | 
